{
  "source": "paper PMC9860497",
  "target": "14-3-3γ (UniProt P61982)",
  "experiment": "anti-Flag co-IP, anti-HA blot",
  "settings": "reference: wild-type HA-TMCC3-D1; sites S15",
  "data": [
    {"substance": "TMCC3 TMCC3-D1, 1-210 (from UniProt Q8R310) HA-TMCC3-D1-S15A", "values": [
      {"measurement": "binding against the reference", "result": "weaker"}
    ]}
  ]
}
